In article PMC11480844 (2024):

B1: H2-Kb / Ed31 (parent complex)
chain 1: GQQVQQSPASLVLQEGENAELQCNFSTSLNSMQWFYQRPGGSLVSLFYNPSGTKHSGRLTSTTVIKERRSSLHISSSQTTDSGTYLCALEGNYAQGLTFGLGTRVSVFP
chain 2: ETAVFQTPNYHVTQVGNEVSFNCKQTLGHDTMYWYKQDSKKLLKIMFSYNNKQLIVNETVPRRFSPQSSDKAHLNLRIKSVEPEDSAVYLCASRSAGEQYFGPGTRLTVL
chain 3: not shown
chain 4: IQKTPQIQVYSRHPPENGKPNILNCYVTQFHPPHIEIQMLKNGKKIPKVEMSDMSFSKDWSFYILAHTEFTPTETDTYACRVKHDSMAEPKTVYWDRDM
chain 5: SIINFEKL
B2: H2-Kb / Ed46 (parent complex)
chain 1: AQSVTQPDARVTVSEGASLQLRCKYSYFGTPYLFWYVQYPRQGLQLLLKYYPGDPVVQGVNGFEAEFSKSNSSFHLRKASVHWSDWAVYFCAVGRTGGYKVVFGSGTRLLVSP
chain 2: DSGVVQSPRHIIKEKGGRSVLTCIPISGHSNVVWYQQTLGKELKFLIQHYEKVERDKGFLPSRFSVQQFDDYHSEMNMSALELEDSAMYFCASSPRHSDYTFGSGTRLLVI
chain 3: not shown
chain 4: B1 chain 4
chain 5: SIINFEKL

Variants of: B1
Experiment: % of reporter cells activated (NFAT-GFP), raw
Further: test concentration or dose not given here.

Q: How did the ratio to parent turn out when chain 5 S1Q was run?
A: 0.757

Q: For chain 5 S1W, which ratio to parent is on record?
A: 0.498

Q: chain 5 S1N was tested. Which ratio to parent did it give?
A: 0.163

Q: How did the ratio to parent turn out when chain 5 S1M was run?
A: 0.898

Q: With chain 5 N4F as the variant, how does the ratio to parent read?
A: 0.127

Q: How did the ratio to parent turn out when chain 5 K7M was run?
A: 0.104

Q: With chain 5 L8C as the variant, how does the ratio to parent read?
A: 0.602

Q: How did the ratio to parent turn out when chain 5 L8P was run?
A: 0.779

Q: How did the ratio to parent turn out when chain 5 L8V was run?
A: 0.812

Q: chain 5 L8E was tested. Which ratio to parent did it give?
A: 0.687

Q: With chain 5 I3W as the variant, how does the ratio to parent read?
A: 0.355

Q: chain 5 I3D was tested. Which ratio to parent did it give?
A: 0.375

Q: For chain 5 I3V, which ratio to parent is on record?
A: 0.982

Q: For chain 5 I2C, which ratio to parent is on record?
A: 1.07

Q: For chain 5 I2R, which ratio to parent is on record?
A: 0.851

Q: With chain 5 I2W as the variant, how does the ratio to parent read?
A: 0.863

Q: Which ratio to parent does the source give for chain 5 I2Q here?
A: 0.897

Q: How did the ratio to parent turn out when chain 5 E6A was run?
A: 0.0173

Q: Which ratio to parent does the source give for chain 5 E6M here?
A: 0.25

Q: Which ratio to parent does the source give for chain 5 E6R here?
A: 0.00349

Q: How did the ratio to parent turn out when chain 5 F5G was run?
A: 0.529

Q: How did the ratio to parent turn out when chain 5 F5V was run?
A: 0.859

Q: For chain 5 F5W, which ratio to parent is on record?
A: 0.829

Q: For chain 5 F5L, which ratio to parent is on record?
A: 0.821

Q: How did the ratio to parent turn out when chain 5 F5H was run?
A: 0.892

Q: How did the ratio to parent turn out when chain 5 F5M was run?
A: 0.917

Variants of: B2
Experiment: % of reporter cells activated (NFAT-GFP), raw

Q: Which ratio to parent does the source give for chain 5 N4T here?
A: 0.00841

Q: Which ratio to parent does the source give for chain 5 N4D here?
A: 0.009

Q: For chain 5 N4H, which ratio to parent is on record?
A: 0.036

Q: chain 5 N4C was tested. Which ratio to parent did it give?
A: 0.0356

Q: Which ratio to parent does the source give for chain 5 N4V here?
A: 0.00323

Q: How did the ratio to parent turn out when chain 5 N4M was run?
A: 0.00538

Q: With chain 5 N4P as the variant, how does the ratio to parent read?
A: 0.00841

Q: For chain 5 N4I, which ratio to parent is on record?
A: 0.0714

Q: chain 5 N4Q was tested. Which ratio to parent did it give?
A: 0.00528

Q: Which ratio to parent does the source give for chain 5 N4K here?
A: 0.027

Q: Which ratio to parent does the source give for chain 5 N4G here?
A: 0.00595

Q: chain 5 N4W was tested. Which ratio to parent did it give?
A: 0.0119

Q: Which ratio to parent does the source give for chain 5 N4Y here?
A: 0.0186

Q: chain 5 N4A was tested. Which ratio to parent did it give?
A: 0.0038

Q: With chain 5 N4E as the variant, how does the ratio to parent read?
A: 0.0143

Q: For chain 5 N4R, which ratio to parent is on record?
A: 0.317

Q: Which ratio to parent does the source give for chain 5 N4L here?
A: 0.0593

Q: With chain 5 K7C as the variant, how does the ratio to parent read?
A: 0.0252

Q: For chain 5 K7N, which ratio to parent is on record?
A: 0.138

Q: With chain 5 K7E as the variant, how does the ratio to parent read?
A: 0.00395

Q: chain 5 K7Q was tested. Which ratio to parent did it give?
A: 0.0775

Q: With chain 5 K7A as the variant, how does the ratio to parent read?
A: 0.383

Q: For chain 5 K7Y, which ratio to parent is on record?
A: 0.446

Q: chain 5 K7T was tested. Which ratio to parent did it give?
A: 0.291

Q: How did the ratio to parent turn out when chain 5 K7M was run?
A: 0.0863

Q: How did the ratio to parent turn out when chain 5 K7F was run?
A: 0.0438

Q: How did the ratio to parent turn out when chain 5 K7L was run?
A: 0.178

Q: With chain 5 K7S as the variant, how does the ratio to parent read?
A: 0.689

Q: chain 5 K7D was tested. Which ratio to parent did it give?
A: 0.0219

Q: With chain 5 K7I as the variant, how does the ratio to parent read?
A: 0.2

Q: How did the ratio to parent turn out when chain 5 K7W was run?
A: 0.628

Q: How did the ratio to parent turn out when chain 5 S1H was run?
A: 0.973

Q: chain 5 S1L was tested. Which ratio to parent did it give?
A: 0.0092

Q: With chain 5 S1N as the variant, how does the ratio to parent read?
A: 0.0395

Q: With chain 5 S1G as the variant, how does the ratio to parent read?
A: 0.39

Q: Which ratio to parent does the source give for chain 5 S1C here?
A: 0.0634

Q: How did the ratio to parent turn out when chain 5 S1P was run?
A: 0.0427

Q: Which ratio to parent does the source give for chain 5 S1T here?
A: 0.278

Q: For chain 5 S1R, which ratio to parent is on record?
A: 0.223

Q: chain 5 S1V was tested. Which ratio to parent did it give?
A: 0.0256

Q: chain 5 S1A was tested. Which ratio to parent did it give?
A: 0.746

Q: chain 5 S1W was tested. Which ratio to parent did it give?
A: 0.151

Q: chain 5 S1Y was tested. Which ratio to parent did it give?
A: 0.795

Q: With chain 5 S1Q as the variant, how does the ratio to parent read?
A: 0.0873

Q: Which ratio to parent does the source give for chain 5 S1D here?
A: 0.675

Q: With chain 5 F5P as the variant, how does the ratio to parent read?
A: 1.17

Q: For chain 5 F5D, which ratio to parent is on record?
A: 0.591

Q: How did the ratio to parent turn out when chain 5 F5K was run?
A: 0.845

Q: How did the ratio to parent turn out when chain 5 F5M was run?
A: 1.02

Q: With chain 5 F5R as the variant, how does the ratio to parent read?
A: 1.18

Q: Which ratio to parent does the source give for chain 5 F5S here?
A: 1.32

Q: chain 5 F5L was tested. Which ratio to parent did it give?
A: 1.17

Q: With chain 5 F5Y as the variant, how does the ratio to parent read?
A: 1.3

Q: chain 5 F5W was tested. Which ratio to parent did it give?
A: 1.2

Q: For chain 5 F5E, which ratio to parent is on record?
A: 0.65

Q: With chain 5 F5G as the variant, how does the ratio to parent read?
A: 0.916

Q: For chain 5 F5Q, which ratio to parent is on record?
A: 0.757

Q: For chain 5 F5A, which ratio to parent is on record?
A: 1.01

Q: Which ratio to parent does the source give for chain 5 F5I here?
A: 1.02

Q: With chain 5 F5C as the variant, how does the ratio to parent read?
A: 1.19

Q: With chain 5 F5N as the variant, how does the ratio to parent read?
A: 0.955

Q: How did the ratio to parent turn out when chain 5 F5T was run?
A: 1.38

Q: With chain 5 E6M as the variant, how does the ratio to parent read?
A: 0.398

Q: chain 5 E6L was tested. Which ratio to parent did it give?
A: 0.16

Q: For chain 5 E6T, which ratio to parent is on record?
A: 0.0683

Q: How did the ratio to parent turn out when chain 5 E6R was run?
A: 0.632

Q: How did the ratio to parent turn out when chain 5 E6H was run?
A: 0.25

Q: For chain 5 E6F, which ratio to parent is on record?
A: 0.0998

Q: chain 5 E6P was tested. Which ratio to parent did it give?
A: 0.329

Q: With chain 5 E6N as the variant, how does the ratio to parent read?
A: 0.464

Q: Which ratio to parent does the source give for chain 5 E6A here?
A: 0.534

Q: With chain 5 E6K as the variant, how does the ratio to parent read?
A: 0.746

Q: How did the ratio to parent turn out when chain 5 E6C was run?
A: 0.0448

Q: With chain 5 E6W as the variant, how does the ratio to parent read?
A: 0.038

Q: How did the ratio to parent turn out when chain 5 E6Y was run?
A: 0.119

Q: chain 5 E6I was tested. Which ratio to parent did it give?
A: 0.0119

Q: For chain 5 L8C, which ratio to parent is on record?
A: 0.613

Q: chain 5 L8K was tested. Which ratio to parent did it give?
A: 1.09

Q: For chain 5 L8P, which ratio to parent is on record?
A: 0.718

Q: Which ratio to parent does the source give for chain 5 L8Y here?
A: 1.07

Q: Which ratio to parent does the source give for chain 5 L8W here?
A: 0.918

Q: How did the ratio to parent turn out when chain 5 L8E was run?
A: 0.691

Q: chain 5 L8A was tested. Which ratio to parent did it give?
A: 0.861

Q: For chain 5 L8Q, which ratio to parent is on record?
A: 0.977

Q: How did the ratio to parent turn out when chain 5 L8I was run?
A: 1.07

Q: With chain 5 L8F as the variant, how does the ratio to parent read?
A: 1.06

Q: How did the ratio to parent turn out when chain 5 L8R was run?
A: 0.918

Q: With chain 5 L8V as the variant, how does the ratio to parent read?
A: 0.886

Q: chain 5 L8G was tested. Which ratio to parent did it give?
A: 0.703

Q: chain 5 I2A was tested. Which ratio to parent did it give?
A: 1.4

Q: For chain 5 I2E, which ratio to parent is on record?
A: 1.11

Q: Which ratio to parent does the source give for chain 5 I2H here?
A: 0.785

Q: For chain 5 I2L, which ratio to parent is on record?
A: 1.38

Q: For chain 5 I2R, which ratio to parent is on record?
A: 1.11

Q: Which ratio to parent does the source give for chain 5 I2W here?
A: 0.693

Q: How did the ratio to parent turn out when chain 5 I2Q was run?
A: 0.775

Q: For chain 5 I2C, which ratio to parent is on record?
A: 1.26

Q: With chain 5 I2K as the variant, how does the ratio to parent read?
A: 1.12

Q: For chain 5 I2Y, which ratio to parent is on record?
A: 0.656

Q: With chain 5 I2M as the variant, how does the ratio to parent read?
A: 1.17

Q: Which ratio to parent does the source give for chain 5 I2F here?
A: 1.13

Q: How did the ratio to parent turn out when chain 5 I2D was run?
A: 1.37

Q: With chain 5 I2P as the variant, how does the ratio to parent read?
A: 1.23

Q: chain 5 I2T was tested. Which ratio to parent did it give?
A: 1.39

Q: For chain 5 I2G, which ratio to parent is on record?
A: 1.2

Q: How did the ratio to parent turn out when chain 5 I2N was run?
A: 0.898

Q: chain 5 I3D was tested. Which ratio to parent did it give?
A: 0.17

Q: Which ratio to parent does the source give for chain 5 I3K here?
A: 0.924

Q: Which ratio to parent does the source give for chain 5 I3L here?
A: 1.05

Q: chain 5 I3S was tested. Which ratio to parent did it give?
A: 1.06

Q: For chain 5 I3Q, which ratio to parent is on record?
A: 0.383

Q: How did the ratio to parent turn out when chain 5 I3P was run?
A: 0.669

Q: With chain 5 I3E as the variant, how does the ratio to parent read?
A: 0.47

Q: Which ratio to parent does the source give for chain 5 I3W here?
A: 0.64

Q: chain 5 I3R was tested. Which ratio to parent did it give?
A: 0.245

Q: chain 5 I3V was tested. Which ratio to parent did it give?
A: 0.724

Q: Which ratio to parent does the source give for chain 5 I3H here?
A: 0.998

Q: With chain 5 I3C as the variant, how does the ratio to parent read?
A: 0.689

Q: With chain 5 I3A as the variant, how does the ratio to parent read?
A: 0.139

Q: For chain 5 I3M, which ratio to parent is on record?
A: 0.446

Q: With chain 5 I3F as the variant, how does the ratio to parent read?
A: 0.726

Q: How did the ratio to parent turn out when chain 5 I3Y was run?
A: 1.08

Q: Which ratio to parent does the source give for chain 5 I3G here?
A: 0.202

Q: How did the ratio to parent turn out when chain 5 I3T was run?
A: 0.301
